Results from patent US20220062371A1, “LIGAND-DRUG-CONJUGATES AS SUBSTRATES FOR SELECTIVE CLEAVAGE BY THE EXOPEPTIDASE ACTIVITY OF CATHEPSIN B” (DEBIOPHARM RESEARCH & MANUFACTURING S.A., priority 2017, published 2022).

Molecular target: Recombinant human Cathepsin B (human) (UniProt P07858)
Test: cell-based or functional assay

- T 1/2 of release of AF-Arg by Cat B: < 5 min
Substance: ADC1, AF-Arg-Lys(PEG4-Mal-trastuzumab)-Phe-OH (antibody)
